The supplement of paper PMC10126150
± gives the standard deviation of the averaged measurements.

Tested on: ATP
Assay: switch fluorescence ratio, 500 uM ATP over buffer (Cy3 cluster intensity, sum of 5 cycles each) (fold (ratio)); higher = stronger signal-on switching upon ATP binding; sequences stand for … in TCGTCGGCAGCGTCAGATGTGTATAAGAGACAGTTTTTTTTTTTTTTTTTTTTTTTTT…TC
Conditions: aptamer strand: ATP DNA aptamer (quencher-CACCTGGGGGAGTATTGCGGAGGAAGG + anchor), 100 nM annealed; ATP concentration: 500 uM
Method in brief: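 Imaging in selection buffer was followed by imaging after 15 min with 500 uM ATP at 22 °C, for Cy3-labelled switching-strand clusters annealed to 100 nM quencher-labelled ATP aptamer on a modified Illumina MiSeq flow-cell. Five of these buffer/ATP cycles ran, separated by NaOH stripping and re-annealing. The fluorescence ratio per cluster is summed target-cycle over summed buffer-cycle Cy3 intensity, averaged per switch-domain sequence; clusters outside 100-1000 RFU were removed.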
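Further: ATP exposure 15 min at 22 °C before imaging.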

Which switch fluorescence ratio does the source give for ACTCGGACCG here?
Its switch fluorescence ratio is 1.0425 ± 0.00055.

TCAGGGGGAT was tested. Which switch fluorescence ratio did it give?
Its switch fluorescence ratio is 1.02 ± 0.028.

For TTCCGGTTGG, which switch fluorescence ratio is on record?
The switch fluorescence ratio was 1 ± 0.023.

For AGTGCAGGGA, which switch fluorescence ratio is on record?
The switch fluorescence ratio was 0.9894 ± 0.0077.

Which switch fluorescence ratio does the source give for GGTTTTGGCT here?
The switch fluorescence ratio was 0.991 ± 0.01.

Which switch fluorescence ratio does the source give for GGGGATATGC here?
The switch fluorescence ratio was 0.995 ± 0.048.

How did the switch fluorescence ratio turn out when AACTGGGGGT was run?
The switch fluorescence ratio was 1.02 ± 0.017.

How did the switch fluorescence ratio turn out when TCTTAAGGGC was run?
Its switch fluorescence ratio is 0.972 ± 0.01.

How did the switch fluorescence ratio turn out when TAGATTCAGG was run?
Its switch fluorescence ratio is 1.004 ± 0.0054.

How did the switch fluorescence ratio turn out when GCGATTTGTG was run?
Its switch fluorescence ratio is 1.01 ± 0.037.

Which switch fluorescence ratio does the source give for TAATCAATAT here?
The switch fluorescence ratio was 1.013 ± 0.0017.

How did the switch fluorescence ratio turn out when GGTGTTTCAT was run?
The switch fluorescence ratio was 0.973 ± 0.053.

With GAAATTTGGA as the sequence, how does the switch fluorescence ratio read?
The switch fluorescence ratio was 0.991 ± 0.034.

Which switch fluorescence ratio does the source give for ATGGTGCGGT here?
Its switch fluorescence ratio is 0.987 ± 0.02.

With CTATACTTGG as the sequence, how does the switch fluorescence ratio read?
The switch fluorescence ratio was 0.98716 ± 0.00098.

With GGGGGGCCAG as the sequence, how does the switch fluorescence ratio read?
Its switch fluorescence ratio is 1.01 ± 0.04.

With TAGATAAACT as the sequence, how does the switch fluorescence ratio read?
Its switch fluorescence ratio is 0.9969 ± 0.0039.

GTCACAACGG was tested. Which switch fluorescence ratio did it give?
The switch fluorescence ratio was 0.999 ± 0.024.

With CGCGGTGGGC as the sequence, how does the switch fluorescence ratio read?
Its switch fluorescence ratio is 1.005 ± 0.0026.

With GGGTTTTATA as the sequence, how does the switch fluorescence ratio read?
The switch fluorescence ratio was 1.016 ± 0.01.

With GGGAAGGGGT as the sequence, how does the switch fluorescence ratio read?
Its switch fluorescence ratio is 1.01 ± 0.055.

AATCGTGGTT was tested. Which switch fluorescence ratio did it give?
Its switch fluorescence ratio is 1 ± 0.034.

How did the switch fluorescence ratio turn out when GAGGTGTGGG was run?
The switch fluorescence ratio was 0.981 ± 0.016.

How did the switch fluorescence ratio turn out when CCAGAGACCG was run?
The switch fluorescence ratio was 1.04 ± 0.012.

Which switch fluorescence ratio does the source give for AATGTCGCGC here?
The switch fluorescence ratio was 0.961 ± 0.016.

TTGTTCAAGT was tested. Which switch fluorescence ratio did it give?
The switch fluorescence ratio was 0.998 ± 0.043.

GTTGCGCGTC was tested. Which switch fluorescence ratio did it give?
Its switch fluorescence ratio is 1.03 ± 0.024.

How did the switch fluorescence ratio turn out when GATTTCGGCG was run?
The switch fluorescence ratio was 0.97 ± 0.03.

For GAAGTCGTAG, which switch fluorescence ratio is on record?
The switch fluorescence ratio was 0.96 ± 0.039.

How did the switch fluorescence ratio turn out when GTGTTTGGGG was run?
Its switch fluorescence ratio is 0.977 ± 0.023.

Which switch fluorescence ratio does the source give for CGAAGCTCTG here?
The switch fluorescence ratio was 1.09 ± 0.013.

How did the switch fluorescence ratio turn out when TATTAGTAAT was run?
Its switch fluorescence ratio is 1.002 ± 0.0032.

For TGCTTCATGT, which switch fluorescence ratio is on record?
Its switch fluorescence ratio is 0.985 ± 0.027.

CTTAGTAGT was tested. Which switch fluorescence ratio did it give?
The switch fluorescence ratio was 0.973 ± 0.024.

With TAAGGTGGTT as the sequence, how does the switch fluorescence ratio read?
The switch fluorescence ratio was 0.976 ± 0.034.

For TGGTGCATGG, which switch fluorescence ratio is on record?
Its switch fluorescence ratio is 1.03 ± 0.024.

For GGCATTATAA, which switch fluorescence ratio is on record?
Its switch fluorescence ratio is 0.99 ± 0.025.

How did the switch fluorescence ratio turn out when AATTAAGATA was run?
Its switch fluorescence ratio is 0.991 ± 0.03.

With CTGGGATTTG as the sequence, how does the switch fluorescence ratio read?
The switch fluorescence ratio was 0.997 ± 0.049.

Which switch fluorescence ratio does the source give for GATGCATGTT here?
The switch fluorescence ratio was 0.9947 ± 0.0021.

With TACGTTTCC as the sequence, how does the switch fluorescence ratio read?
Its switch fluorescence ratio is 1.138 ± 0.0089.

With GCGTAAACGG as the sequence, how does the switch fluorescence ratio read?
Its switch fluorescence ratio is 1.06 ± 0.022.

Which switch fluorescence ratio does the source give for CTGTATAGGT here?
The switch fluorescence ratio was 0.965 ± 0.025.

With TTCAAATATA as the sequence, how does the switch fluorescence ratio read?
The switch fluorescence ratio was 1.003 ± 0.0017.

How did the switch fluorescence ratio turn out when TGTATGGCGC was run?
The switch fluorescence ratio was 1.01 ± 0.058.

GCCGGTGTTT was tested. Which switch fluorescence ratio did it give?
The switch fluorescence ratio was 1.02 ± 0.036.

For CCGGGATGGT, which switch fluorescence ratio is on record?
The switch fluorescence ratio was 1.14 ± 0.057.

Which switch fluorescence ratio does the source give for GAAGTTGTGT here?
The switch fluorescence ratio was 0.987 ± 0.031.

Which switch fluorescence ratio does the source give for TGTGCAGAAA here?
The switch fluorescence ratio was 0.9899 ± 0.0059.

How did the switch fluorescence ratio turn out when TTATGAAGAT was run?
Its switch fluorescence ratio is 0.963 ± 0.029.

GGGCGTTCTG was tested. Which switch fluorescence ratio did it give?
The switch fluorescence ratio was 1.04 ± 0.023.

With TTTTATTCCT as the sequence, how does the switch fluorescence ratio read?
The switch fluorescence ratio was 1.04 ± 0.037.

Which switch fluorescence ratio does the source give for TCGACTGCGT here?
Its switch fluorescence ratio is 1.056 ± 0.005.

For CGGTCCGGTG, which switch fluorescence ratio is on record?
The switch fluorescence ratio was 1.04 ± 0.026.

TTTGTTTCT was tested. Which switch fluorescence ratio did it give?
The switch fluorescence ratio was 0.968 ± 0.01.

How did the switch fluorescence ratio turn out when GGGGTTTGGA was run?
Its switch fluorescence ratio is 0.987 ± 0.024.

How did the switch fluorescence ratio turn out when ATTCAAGCCT was run?
Its switch fluorescence ratio is 1.15 ± 0.047.

For ACGGGTTAGA, which switch fluorescence ratio is on record?
The switch fluorescence ratio was 1.02 ± 0.036.

How did the switch fluorescence ratio turn out when GTATAATGGG was run?
Its switch fluorescence ratio is 0.973 ± 0.019.

Which switch fluorescence ratio does the source give for TTCTGTTAAA here?
Its switch fluorescence ratio is 1.02 ± 0.027.

Which switch fluorescence ratio does the source give for ATTTTTCAGC here?
Its switch fluorescence ratio is 1.003 ± 0.0042.

How did the switch fluorescence ratio turn out when TTCTTGATTT was run?
The switch fluorescence ratio was 1 ± 0.035.

How did the switch fluorescence ratio turn out when CAGGGCGATA was run?
Its switch fluorescence ratio is 1.1 ± 0.033.

With AATTTGATGC as the sequence, how does the switch fluorescence ratio read?
The switch fluorescence ratio was 0.985 ± 0.018.

Which switch fluorescence ratio does the source give for TGGTAAATGT here?
Its switch fluorescence ratio is 0.97 ± 0.013.

How did the switch fluorescence ratio turn out when GGGATTGAGC was run?
Its switch fluorescence ratio is 1.03 ± 0.041.

Which switch fluorescence ratio does the source give for TTTTTGGTGT here?
The switch fluorescence ratio was 1.03 ± 0.036.

With CCGAAAAGCT as the sequence, how does the switch fluorescence ratio read?
The switch fluorescence ratio was 1.17 ± 0.041.

For ATGGTCTTTT, which switch fluorescence ratio is on record?
The switch fluorescence ratio was 1.014 ± 0.0032.

Which switch fluorescence ratio does the source give for AAAGGTTGTT here?
Its switch fluorescence ratio is 1.013 ± 0.0037.

AGCGAGGGGC was tested. Which switch fluorescence ratio did it give?
The switch fluorescence ratio was 1.02 ± 0.035.

Which switch fluorescence ratio does the source give for TTCTCTAGAT here?
Its switch fluorescence ratio is 1.056 ± 0.0066.

GGAGTTTCGG was tested. Which switch fluorescence ratio did it give?
Its switch fluorescence ratio is 1 ± 0.031.

Which switch fluorescence ratio does the source give for TAGGGGGAAG here?
The switch fluorescence ratio was 0.9792 ± 0.0033.

AAAAAAATAG was tested. Which switch fluorescence ratio did it give?
Its switch fluorescence ratio is 1.03 ± 0.014.

How did the switch fluorescence ratio turn out when CCGAGTTTGT was run?
Its switch fluorescence ratio is 1.05 ± 0.011.

With TTTTAGCTTC as the sequence, how does the switch fluorescence ratio read?
The switch fluorescence ratio was 1.03 ± 0.017.

GACTTATTTT was tested. Which switch fluorescence ratio did it give?
Its switch fluorescence ratio is 0.9849 ± 0.0014.

With TTGTTCAGGG as the sequence, how does the switch fluorescence ratio read?
The switch fluorescence ratio was 0.99 ± 0.013.

With GAGGGGGGCA as the sequence, how does the switch fluorescence ratio read?
The switch fluorescence ratio was 0.977 ± 0.03.

For CCAAGGGTTT, which switch fluorescence ratio is on record?
The switch fluorescence ratio was 0.993 ± 0.06.

TAGGGATATA was tested. Which switch fluorescence ratio did it give?
Its switch fluorescence ratio is 0.985 ± 0.035.

For GTTATTTTCC, which switch fluorescence ratio is on record?
Its switch fluorescence ratio is 1.01 ± 0.071.

Which switch fluorescence ratio does the source give for TAGGTATGTG here?
The switch fluorescence ratio was 1.03 ± 0.049.

AAGGGGGATC was tested. Which switch fluorescence ratio did it give?
Its switch fluorescence ratio is 1 ± 0.032.

Which switch fluorescence ratio does the source give for TGGTGGAATT here?
The switch fluorescence ratio was 1.02 ± 0.034.

With AACGTGGTTT as the sequence, how does the switch fluorescence ratio read?
The switch fluorescence ratio was 1.01 ± 0.025.

With AGGAGTTTCG as the sequence, how does the switch fluorescence ratio read?
The switch fluorescence ratio was 1.01 ± 0.044.

How did the switch fluorescence ratio turn out when AGTGTGGGTT was run?
Its switch fluorescence ratio is 0.979 ± 0.0047.

With GAAGTAAGAG as the sequence, how does the switch fluorescence ratio read?
Its switch fluorescence ratio is 1.11 ± 0.019.

For CGTCTTAGGG, which switch fluorescence ratio is on record?
The switch fluorescence ratio was 0.966 ± 0.016.

For TAAAGGCTAT, which switch fluorescence ratio is on record?
The switch fluorescence ratio was 1 ± 0.026.

CGGGAGTGCG was tested. Which switch fluorescence ratio did it give?
Its switch fluorescence ratio is 1.02 ± 0.024.

Which switch fluorescence ratio does the source give for CGATTTGGAG here?
The switch fluorescence ratio was 0.995 ± 0.012.

For TTTCGTGGAG, which switch fluorescence ratio is on record?
The switch fluorescence ratio was 0.996 ± 0.02.

With GCGTATGGGG as the sequence, how does the switch fluorescence ratio read?
The switch fluorescence ratio was 0.977 ± 0.027.

With ACTCATTTAC as the sequence, how does the switch fluorescence ratio read?
Its switch fluorescence ratio is 1.21 ± 0.096.

How did the switch fluorescence ratio turn out when GCTTCTGGAA was run?
The switch fluorescence ratio was 1.06 ± 0.018.

With GGGTTAAGTA as the sequence, how does the switch fluorescence ratio read?
Its switch fluorescence ratio is 0.993 ± 0.031.

TTTAACCGTA was tested. Which switch fluorescence ratio did it give?
The switch fluorescence ratio was 1.02 ± 0.023.
